Data taken from doi:10.1101/2020.12.23.424221.
Where two headings read alike, the source gives them in different places.

Key:
Experiment in all cases: single-molecule TIRF microscopy
[1] = biological target: Taxol-stabilized rhodamine-labeled biotinylated microtubules (bovine) (UniProt Q6B856)
[2] = biological target: Taxol-stabilized rhodamine-labeled biotinylated microtubules (bovine) (UniProt Q6B856); remark: listed apart in the source
[3] = biological target: Taxol-stabilized rhodamine-labeled biotinylated microtubules (bovine) (UniProt Q6B856); remark: listed apart in the source
[4] = biological target: Taxol-stabilized rhodamine-labeled biotinylated microtubules (bovine) (UniProt Q6B856); remark: listed apart in the source
[5] = biological target: Taxol-stabilized rhodamine-labeled biotinylated microtubules (bovine) (UniProt Q6B856); remark: listed apart in the source
[6] = biological target: Taxol-stabilized rhodamine-labeled biotinylated microtubules (bovine) (UniProt Q6B856); remark: listed apart in the source
[7] = biological target: Taxol-stabilized rhodamine-labeled biotinylated microtubules (bovine) (UniProt Q6B856); remark: listed apart in the source
[8] = biological target: Taxol-stabilized rhodamine-labeled biotinylated microtubules (bovine) (UniProt Q6B856); remark: listed apart in the source
[9] = biological target: Taxol-stabilized rhodamine-labeled biotinylated microtubules (bovine) (UniProt Q6B856); remark: listed apart in the source
[10] = biological target: Taxol-stabilized rhodamine-labeled biotinylated microtubules (bovine) (UniProt Q6B856); remark: listed apart in the source
[11] = biological target: Taxol-stabilized rhodamine-labeled biotinylated microtubules (bovine) (UniProt Q6B856); remark: listed apart in the source
[12] = biological target: Taxol-stabilized rhodamine-labeled biotinylated microtubules (bovine) (UniProt Q6B856); remark: listed apart in the source

B1: GFP-tagged Kif4A (natural protein)
chain: MKEEVKGIPVRVALRCRPLVPKEISEGCQMCLSFVPGEPQVVVGTDKSFTYDFVFDPSTEQEEVFNTAVAPLIKGVFKGYNATVLAYGQTGSGKTYSMGGAYTAEQENEPTVGVIPRVIQLLFKEIDKKSDFEFTLKVSYLEIYNEEILDLLCPSREKAQINIREDPKEGIKIVGLTEKTVLVALDTVSCLEQGNNSRTVASTAMNSQSSRSHAIFTISLEQRKKSDKNSSFRSKLHLVDLAGSERQKKTKAEGDRLKEGININRGLLCLGNVISALGDDKKGGFVPYRDSKLTRLLQDSLGGNSHTLMIACVSPADSNLEETLNTLRYADRARKIKNKPIVNIDPQTAELNHLKQQVQQLQVLLLQAHGGTLPGSITVEPSENLQSLMEKNQSLVEENEKLSRGLSEAAGQTAQMLERIILTEQANEKMNAKLEELRQHAACKLDLQKLVETLEDQELKENVEIICNLQQLITQLSDETVACMAAAIDTAVEQEAQVETSPETSRSSDAFTTQHALRQAQMSKELVELNKALALKEALARKMTQNDSQLQPIQYQYQDNIKELELEVINLQKEKEELVLELQTAKKDANQAKLSERRRKRLQELEGQIADLKKKLNEQSKLLKLKESTERTVSKLNQEIRMMKNQRVQLMRQMKEDAEKFRQWKQKKDKEVIQLKERDRKRQYELLKLERNFQKQSNVLRRKTEEAAAANKRLKDALQKQREVADKRKETQSRGMEGTAARVKNWLGNEIEVMVSTEEAKRHLNDLLEDRKILAQDVAQLKEKKESGENPPPKLRRRTFSLTEVRGQVSESEDSITKQIESLETEMEFRSAQIADLQQKLLDAESEDRPKQRWENIATILEAKCALKYLIGELVSSKIQVSKLESSLKQSKTSCADMQKMLFEERNHFAEIETELQAELVRMEQQHQEKVLYLLSQLQQSQMAEKQLEESVSEKEQQLLSTLKCQDEELEKMREVCEQNQQLLRENEIIKQKLTLLQVASRQKHLPKDTLLSPDSSFEYVPPKPKPSRVKEKFLEQSMDIEDLKYCSEHSVNEHEDGDGDDDEGDDEEWKPTKLVKVSRKNIQGCSCKGWCGNKQCGCRKQKSDCGVDCCCDPTKCRNRQQGKDSLGTVERTQDSEGSFKLEDPTEVTPGLSFFNPVCATPNSKILKEMCDVEQVLSKKTPPAPSPFDLPELKHVATEYQENKAPGKKKKRALASNTSFFSGCSPIEEEAH
lifetime on the microtubule (median) [1]: 1.2 s
lifetime on the microtubule (median) [2]: 1.8 s
lifetime on the microtubule (median) [3]: 3.9 s
lifetime on the microtubule (median) [4]: 2.1 s
lifetime on the microtubule (median) [5]: 7.2 s
lifetime on the microtubule (median) [6]: 17.9 s
lifetime on the microtubule (median) [7]: 1.5 s
lifetime on the microtubule (median) [8]: 8.3 s
lifetime on the microtubule (median) [9]: 3.6 s
lifetime on the microtubule (median) [10]: 4.9 s
lifetime on the microtubule (median) [11]: 9 s
lifetime on the microtubule (median) [12]: 4.2 s
